The values below come from PMC4931238.

The target of experiment [1] is gp120Sht-LS (clade-A BG505 gp120 fused to lumazine synthase) (HIV-1 clade A BG505 | Aquifex aeolicus). The experiment in a line: native gel or EMSA.
Experiment [2] deals with BG505 SOSIP.664 gp140 trimer (HIV-1 clade A BG505). The experiment in a line: SEC; Superdex 200 10/300 GL column, after GNL purification.

By stoichiometry N is commonly meant the number of molecules, sites or subunits per partner or assembly.

“gp120Sht-LS (clade-A BG505 gp120 fused to lumazine synthase)” came in with a stoichiometry N in experiment [1] of 5.
Regarding BG505 SOSIP.664 gp140 trimer (complex), the stoichiometry N in experiment [2] is 3.
